From patent US20140162292A1 (TOKYO METROPOLITAN INSTITUTE OF MEDICAL SCIENCE, published 2014)
Where no end group is shown, it is not given here. [ ]: non-standard residue; d: D form. pS = N[C@@H](COP(=O)(O)O)C(=O)O

B1: Nrf2-ETGE motif (76-LDEETGEFL-84) of mouse Nrf2 (peptide)
peptide: LDEETGEFL
notes: also called ETGE motif of mouse Nrf2
B2: phosphorylated KIR (VDP(pS)TGELQ) of mouse p62 (peptide)
peptide: VDP[pS]TGELQ
notes: also called phosphorylated p62-KIR; KIR in mouse phosphorylated p62
B3: non-phosphorylated KIR (348-VDPSTGELQ-356) of mouse p62 (peptide)
peptide: VDPSTGELQ
notes: also called non-phosphorylated p62-KIR; KIR in mouse non-phosphorylated p62

What was measured:
[1] = molecular target: T1, mouse Keap1-DC (aa321-609) (mouse, UniProt Q9Z2X8 321-609); test: isothermal titration calorimetry, 25 C, peptide injected into Keap1-DC
T1 construct: also called Keap1-DC domain
T1 sequence (Q9Z2X8 321-609 limits assumed): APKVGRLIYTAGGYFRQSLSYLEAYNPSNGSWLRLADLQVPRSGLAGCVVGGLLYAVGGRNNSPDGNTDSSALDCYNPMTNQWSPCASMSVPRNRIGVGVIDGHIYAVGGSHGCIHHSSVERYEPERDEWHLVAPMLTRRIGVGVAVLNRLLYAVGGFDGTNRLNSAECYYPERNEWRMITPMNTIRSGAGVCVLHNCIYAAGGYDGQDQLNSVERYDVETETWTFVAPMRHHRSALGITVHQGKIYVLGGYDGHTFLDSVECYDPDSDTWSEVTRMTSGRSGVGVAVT
Method: (§1) First, isothermal titration calorimetry was performed using MicroCal iTC₂₀₀ System (GE Healthcare) at 25° C. […] The binding data were analyzed using Origin 7 software (GE healthcare).

[2] = molecular target: T1, mouse Keap1-DC (aa321-609); test: isothermal titration calorimetry
Method: as §1

Row | Binder | Ka [1] [M⁻¹] | fold binding affinity against KIR in the non-phosphorylated p62 [2] [times]
1 | B1 | 6.83e+06 | –
2 | B2 | 5.12e+06 | ~100
3 | B3 | 56700 | –
